Data as given in article PMC3696110, “Hsp70 Oligomerization Is Mediated by an Interaction between the Interdomain Linker and the Substrate-Binding Domain” (PLoS ONE, 2013).

Target: SBD641 (384-641), full-length substrate-binding domain of human Hsp70 with the interdomain linker (human) (UniProt P0DMV8)
Test: native MS; nESI-MS of SBD641 with NR peptide at 1:1 molar ratio, 150 mM ammonium acetate pH 7.4, sample cone voltage 60 V (raised for collisional activation)

peptide molecules bound per SBD641 dimer: < 2
stoichiometry N: 1
Binder: NRLLLTG [NR peptide (NRLLLTG)]
